Sequences and labels used below:
B1: PD1-1 (antibody, V domains shown)
VH: QVQLVQSGAEVKKPGASVKVSCKASGYTFSHYGISWVRQAPGQGLEWMGWVSAYSGNTRYAQKLQGRVTMTTDTSTSTAYMELRSLRSDDTAVYYCARDATYSSGSGYWGQGTLVTVSS
VL: SYELMQPPSVSVSPGQTARITCSGDALPTQYAYWYQQKPGQAPVLVIYQDNERPSGIPERFSGSSSGTTVTLTISGVQAEDEADYYCQSADNSITYRVFGGGTKLTVL
notes: IgG in the assay
B2: PD1-8 (antibody, V domains shown)
VH: B1 VH with V51I, A53P, R59K, A100N, T101D
VL: B1 VL with A26E, T29K, Q49K, P54A
notes: IgG in the assay
B3: PD1-7 (antibody, V domains shown)
VH: B1 VH with S30T, S35T, V51I, N57S, R59N, T101D, S104I
VL: B1 VL with T29N, Y33F, Q49K
notes: IgG in the assay
B4: PD1-2 (antibody, V domains shown)
VH: B1 VH with T28S, H31N, R59N, T101D, S103A
VL: B1 VL with A26E, T29N, Q49K, N51T, E52Q
notes: IgG in the assay
B5: PD1-45 (antibody, V domains shown)
VH: EVQLVESGGGLVQPGRSLRLSCAASGFTFDDYALHWVRQAPGKDLEWVSGISWNAGSQGYADSVKGRFTISRDNAKNSLYLQMNSLRAEDTALYYCVREKGPGLTGSTADYYGLDAWGQGTMVTVSS

Where a chain is given by its changes, count along the chain named.

The target in the first assay is T1, program cell death protein 1 (PD-1) (UniProt Q15116 25-167, limits assumed). In words: cell-based or functional assay.
T1 sequence (Q15116 25-167 limits assumed): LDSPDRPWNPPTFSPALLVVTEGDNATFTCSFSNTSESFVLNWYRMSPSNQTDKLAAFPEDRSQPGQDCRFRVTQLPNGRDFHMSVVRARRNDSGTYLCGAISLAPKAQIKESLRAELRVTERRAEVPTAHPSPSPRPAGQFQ
Consider B1, for which the “Bmax (RU) (PD-1/PD-L1 blockade assay)” value was 693 RU and the “IC50 (PD-1/PD-L1 blockade assay)” value was determined as 0.434 nM.
The like results for B2 were, in that order, 436 RU and 1.97 nM.
On the same counts, the results for B3 are 642 RU and 0.896 nM.
Turning to B4, the “Bmax (RU) (PD-1/PD-L1 blockade assay)” value was 661 RU and the “IC50 (PD-1/PD-L1 blockade assay)” value is 0.848 nM.

A further assay concerns the target T1, program cell death protein 1 (PD-1). In words: SPR (Carterra LSA), IgG, monovalent affinity.
As usually defined, the Kd is the concentration at which binding is half-saturated. A low value points to higher affinity. The molecule B1 returned a Kd of 4.52 nM.

A further assay has the same target. As to the kind of experiment: SPR (Carterra LSA), IgG, monovalent affinity. This is another data set of the same source.
In the case of B5, the Kd worked out at 243 nM.
As for B1, the dissociation constant (Kd) stood at 4.5 nM. This Kd lies about 54-fold lower than the previous one.
In the case of B2, the equilibrium dissociation constant (Kd) came to 78.1 nM.
On the same count and under the same terms, with B3 the figure was 10.5 nM; with B4, 9.8 nM.

For the origin of these results see patent publication US20200308575A1 (TWIST BIOSCIENCE, published 2020).
